Measured values from publication PMC6337304, “Site-directed Mutagenesis of a β-Glycoside Hydrolase from Lentinula edodes” (Molecules, 2018).

Each substance was assayed on [H][C@]12[C@H](OC(=O)c3ccccc3)[C@]3(O)C[C@H](OC(=O)[C@H](O)[C@@H](NC(=O)c4ccccc4)c4ccccc4)C(C)=C([C@@H](O)C(=O)[C@]1(C)[C@@H](O[C@@H]1OC[C@@H](O)[C@H](O)[C@H]1O)C[C@@]1([H])OC[C@@]21OC(C)=O)C3(C)C (assay: HPLC of 10-deacetyltaxol formation, Michaelis-Menten nonlinear fit). Conditions: XDT 0.039–5.0 mmol/L; other conditions as in earlier report.
Format: biochemical, Lentinula edodes
Text: HPLC of 10-deacetyltaxol formation, Michaelis-Menten nonlinear fit on LXYL-P1−1
In the case of “LXYL-P1−1 (Lentinula edodes; I368E/V91S)”, the Km is reported as 0.20 (±0.01) mM, the Vmax is reported as 3.43 µM/min and the kcat is reported as 2.06 ± 0.01 s⁻¹.
LXYL-P1−1 (Lentinula edodes) was tested, and the Km was 0.50 (±0.01) mM, the Vmax was 3.42 µM/min and the kcat was 2.05 ± 0.02 s⁻¹. The kcat/Km was 4100 M⁻¹ s⁻¹.
For LXYL-P1−1 (Lentinula edodes; I368E), the Km was 0.42 (±0.01) mM, the Vmax was 4.02 µM/min and the kcat was 2.41 ± 0.08 s⁻¹. For the same substance, the kcat/Km was 5740 M⁻¹ s⁻¹.
With LXYL-P1−1 (Lentinula edodes; I368T) the Km was 0.35 (±0.10) mM, the Vmax was 2.6 µM/min and the kcat was 1.56 ± 0.34 s⁻¹. It also gave a kcat/Km of 4460 M⁻¹ s⁻¹.
